Blank lines part the entries; values can stand above or below the binder they belong to.
Key:
[1] = molecular target: T1, human FcγRIIB (NM_004001) (human, UniProt P31994 43-310); assay: flow cytometry on Expi293F cells transfected with FcγRIIB
T1 construct: also called FcγRIIB expressed on transfected Expi293F cells
T1 sequence: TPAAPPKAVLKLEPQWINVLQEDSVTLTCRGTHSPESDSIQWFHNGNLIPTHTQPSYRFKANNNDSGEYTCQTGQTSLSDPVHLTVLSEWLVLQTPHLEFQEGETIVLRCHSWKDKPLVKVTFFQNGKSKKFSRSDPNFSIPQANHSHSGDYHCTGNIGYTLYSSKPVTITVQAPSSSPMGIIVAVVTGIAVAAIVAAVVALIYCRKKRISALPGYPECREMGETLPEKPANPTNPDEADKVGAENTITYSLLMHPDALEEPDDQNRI
Protocol: (§1) Plasmids expressing cDNAs encoding human FcγRI (NM_000566) (SEQ ID NO: 59), FcγRIIA (NM_021642) (SEQ ID NO: 60), FcγRIIB (NM_004001) (SEQ ID NO: 61), and FcγRIIIA (NM_000569) (SEQ ID NO: 62) (Origene) were transiently transfected into Expi293F cells by Expifectmine293 transfection kit (Life Technologies). Flow cytometry assays were performed 48 h after transfection.
(§2) 2×10⁵ cells per well were seeded in 96-well plate and blocked in BSA Stain Buffer (BD Biosciences, San Jose, USA) for 30 min at 4° C. Cells were incubated with test antibody on ice for 1.5 hour at 4° C. After being washed twice with BSA stain buffer, the cells were incubated with R-PE labeled anti-human or anti-mouse IgG secondary antibody (Jackson Immunoresearch Laboratories) for 45 min at 4° C. The cells were washed twice in stain buffer and then resuspended in 150 μL of Stain Buffer containing 1:200 diluted DRAQ7 live/dead stain (Cell Signaling Technology, Danvers, USA). PE and DRAQ7 signals of the stained cells were detected by Miltenyi MACSQuant flow cytometer (Miltenyi Biotec, Auburn, USA) using B2 and B4 channel respectively. Live cells were gated on DRAQ7 exclusion and the geometric mean fluorescence signals were determined for at least 10,000 live events collected. FlowJo software (Tree Star) was used for analysis. Data was plotted as the logarithm of antibody concentration versus mean fluorescence signals. Nonlinear regression analysis was performed by GraphPad Prism 6 (GraphPad Software, Inc.) and EC₅₀ values were calculated.

[2] = molecular target: T2, human OX40 (CD134) (human, UniProt P43489 29-277); assay: NanoBRET PPI assay on HEK-Blue: OX40 cells (discussion)
T2 construct: also called HEK-Blue: OX40 cells; transfected OX40 receptor
T2 sequence: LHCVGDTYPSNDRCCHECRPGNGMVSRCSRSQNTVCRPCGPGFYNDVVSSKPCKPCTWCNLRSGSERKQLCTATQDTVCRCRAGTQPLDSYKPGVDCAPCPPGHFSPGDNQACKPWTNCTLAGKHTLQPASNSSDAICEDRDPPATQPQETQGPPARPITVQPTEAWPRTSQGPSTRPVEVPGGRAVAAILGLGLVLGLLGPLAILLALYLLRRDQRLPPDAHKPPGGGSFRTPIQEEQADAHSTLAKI
Protocol: The next day, equal concentrations of Nanoluc-tagged antibody (donor) and Halotag-tagged antibody (acceptor) in 50 μl assay medium (Opti-MEM I reduced serum medium, no phenol red plus 4% FBS) were applied to the cells. Halotag 618 ligand diluted 1:1000 in 50 μl assay medium were added in experimental well, and a no ligand control well was also set up by diluting DMSO 1:1000 in assay medium. After incubation at 37° C. for 30 min, the cells were washed twice with assay medium and resuspended in 100 μl assay medium. 25 μl Nano-Glo substrate, diluted 1:200 in assay medium without FBS, was added to each well. After shaking for 30 seconds, the donor emission (460 nm) and acceptor emission (618 nm) were measured by Envision. Raw NanoBRET ratio values with milliBRET units (mBU) were calculated as RawBRET=618 nmEm/460 nmEm*1000. To factor in donor-contributed background or bleed through, Corrected NanoBRET ratio values with milliBRET units was calculated as CorrectedBRET=RawBRETₑₓₚₑᵣᵢₘₑₙₜₐₗ sample−RawBRET_{no-ligand control sample}, which reflects energy transfer from a bioluminescent protein donor to a fluorescent protein acceptor due to protein-protein interactions.
To evaluate whether the engineered antibodies multimerize upon binding antigens at the cell surface a NanoBRET™ protein-protein interaction (PPI) assay was conducted. This assay is a proximity-based assay that detects protein-protein interactions by measuring energy transfer from a bioluminescent protein donor to a fluorescent protein acceptor. […] NanoBRET PPI assays were performed by applying the donor and acceptor antibodies to HEK-Blue: OX40 cells and the calculated corrected NanoBRET ratios reflect the association of multimerized antibody.

[3] = molecular target: the molecule itself; assay: SEC, self-association in solution
[4] = molecular target: human FcγRI (NM_000566) (human, UniProt P12314 16-374); assay: flow cytometry on Expi293F cells transfected with FcγRI
Protocol: as §1
as §2, with “The cells were washed twice in stain buffer and then resuspended in 150 μL of Stain Buffer containing 1:200 diluted DRAQ7 live/dead stain (Cell Signaling Technology, Danvers, USA).” left out, “FlowJo software (Tree Star) was used for analysis.” left out

[5] = molecular target: human FcγRIIIA (NM_000569) (human, UniProt P08637 17-254); assay: flow cytometry on Expi293F cells transfected with FcγRIIIA
Protocol: as §1, §2

[6] = molecular target: T3, FcγRIIB on Raji cells (human, UniProt P31994 43-310); assay: cell-based or functional assay
T3 sequence (looked up): T1 sequence

[7] = molecular target: T4, human FcγRIIA (NM_021642) (human, UniProt P12318 36-317); assay: flow cytometry on Expi293F cells transfected with FcγRIIA (R131 allotype per text)
T4 construct: also called FcγRIIA^R131; R131 allotype of FcγRIIA
T4 sequence: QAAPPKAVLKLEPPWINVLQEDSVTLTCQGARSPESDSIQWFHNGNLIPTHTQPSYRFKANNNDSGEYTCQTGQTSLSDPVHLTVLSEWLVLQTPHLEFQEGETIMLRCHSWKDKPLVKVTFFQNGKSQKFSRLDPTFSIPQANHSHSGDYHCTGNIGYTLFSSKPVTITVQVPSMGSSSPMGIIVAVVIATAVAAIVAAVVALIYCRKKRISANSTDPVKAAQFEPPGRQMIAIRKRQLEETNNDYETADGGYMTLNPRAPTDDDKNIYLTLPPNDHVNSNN
Protocol: as §1
as §2, with “The cells were washed twice in stain buffer and then resuspended in 150 μL of Stain Buffer containing 1:200 diluted DRAQ7 live/dead stain (Cell Signaling Technology, Danvers, USA).” left out, “FlowJo software (Tree Star) was used for analysis.” left out

[8] = molecular target: T1, human FcγRIIB (NM_004001); assay: binding to transfected Expi293F cells (data not shown)

Sequence of human FcγRIIIA (NM_000569) (P08637 17-254 limits assumed): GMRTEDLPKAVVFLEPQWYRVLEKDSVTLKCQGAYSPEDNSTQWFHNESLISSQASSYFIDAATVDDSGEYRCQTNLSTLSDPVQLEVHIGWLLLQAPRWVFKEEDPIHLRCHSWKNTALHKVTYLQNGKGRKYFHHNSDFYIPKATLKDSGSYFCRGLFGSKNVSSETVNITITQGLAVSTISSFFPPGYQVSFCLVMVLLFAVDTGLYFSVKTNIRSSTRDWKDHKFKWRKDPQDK
Sequence of human FcγRI (NM_000566) (P12314 16-374 limits assumed): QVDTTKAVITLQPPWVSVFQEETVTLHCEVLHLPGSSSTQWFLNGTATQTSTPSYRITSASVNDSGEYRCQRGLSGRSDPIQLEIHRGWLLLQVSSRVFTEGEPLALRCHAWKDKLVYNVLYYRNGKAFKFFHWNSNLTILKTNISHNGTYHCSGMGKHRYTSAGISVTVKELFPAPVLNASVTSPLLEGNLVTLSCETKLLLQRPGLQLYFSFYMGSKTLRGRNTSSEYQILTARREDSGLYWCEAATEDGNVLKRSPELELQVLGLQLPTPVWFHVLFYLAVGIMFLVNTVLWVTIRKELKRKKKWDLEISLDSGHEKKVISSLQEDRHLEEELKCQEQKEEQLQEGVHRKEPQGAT

EC50 [1]: 0.431 µg/mL
B1: anti-FcγRIIB antibody 2B6 (antibody)
chain 1: QVQLQQPVTELVRPGASVMLSCKASDYPFTNYWIHWVKQRPGQGLEWIGVIDPSDTYPNYNKKFKGKATLTVVVSSSTAYMQLSSLTSDDSAVYYCARNGDSDYYSGMDYWGQGTSVTVSS
chain 2: DILLTQSPAILSVSPGERVSFSCRTSQSIGTNIHWYQQRTNGFPRLLIKNVSESISGIPSRFSGSGSGTDFILSINSVESEDIADYYCQQSNTWPFTFGGGTKLEIK

binding result [2]: binds
B2: OX40SF2IgG1E345R/E430G (antibody)
heavy: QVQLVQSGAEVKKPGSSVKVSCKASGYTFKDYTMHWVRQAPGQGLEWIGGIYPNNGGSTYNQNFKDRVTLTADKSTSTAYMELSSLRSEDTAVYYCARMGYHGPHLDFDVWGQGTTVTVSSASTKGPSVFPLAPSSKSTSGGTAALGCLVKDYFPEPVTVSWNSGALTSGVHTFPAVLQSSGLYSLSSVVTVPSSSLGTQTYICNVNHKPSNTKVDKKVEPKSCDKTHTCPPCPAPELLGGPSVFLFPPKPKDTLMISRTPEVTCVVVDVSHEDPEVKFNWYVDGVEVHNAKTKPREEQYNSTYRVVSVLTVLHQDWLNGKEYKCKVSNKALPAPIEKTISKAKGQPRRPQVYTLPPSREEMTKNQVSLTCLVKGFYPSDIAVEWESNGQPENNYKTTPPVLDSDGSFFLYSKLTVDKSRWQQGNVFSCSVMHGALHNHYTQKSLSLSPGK
VL: DIQMTQSPSSLSASVGDRVTITCKASQDVGAAVAWYQQKPGKAPKLLIYWASTRHTGVPSRFSGSGSGTDFTLTISSLQPEDFATYYCQQYINYPLTFGGGTKVEIK
notes: Full IgG1; In the NanoBRET assay the light chains carried a C-terminal Nanoluc or HaloTag

EC50 [4]: 0.326 µg/mL | EC50 [5]: 0.744 µg/mL
B3: OX40SF2IgG1 (antibody)
heavy: not shown
VL: B2 VL
notes: Full IgG1, wild-type Fc; also called SF2 antibody with native human IgG1 Fc; wild-type IgG1
binding result [3]: no binding

HEK-Blue NFκB reporter assay, co-culture with Raji cells; efficacy at 1000 ng/ml against OX40 ligand at the same concentration [6]: > 2 fold | EC50 [1]: 0.502 µg/mL
B4: OX40SF2IgG1V12 (antibody, name in EU numbering)
heavy: QVQLVQSGAEVKKPGSSVKVSCKASGYTFKDYTMHWVRQAPGQGLEWIGGIYPNNGGSTYNQNFKDRVTLTADKSTSTAYMELSSLRSEDTAVYYCARMGYHGPHLDFDVWGQGTTVTVSSASTKGPSVFPLAPSSKSTSGGTAALGCLVKDYFPEPVTVSWNSGALTSGVHTFPAVLQSSGLYSLSSVVTVPSSSLGTQTYICNVNHKPSNTKVDKKVEPKSCDKTHTCPPCPAPDLLGDDSVFLFPPKPKDTLMISRTPEVTCVVVDVSDEDGEVKFNWYVDGVEVHNAKTKPREEQYNSTYRVVSVLTVLHQDWLNGKEYKCKVSNKALPRPIEKTISKAKGQPREPQVYTLPPSRDELTKNQVSLTCLVKGFYPSDIAVEWESNGQPENNYKTTPPVLDSDGSFFLYSKLTVDKSRWQQGNVFSCSVMHEALHNHYTQKSLSLSPGK
VL: B2 VL
notes: Full IgG1; Positions are EU Index
binding result [5]: no binding (tested: 1 ng/ml to 10000 ng/ml)

HEK-Blue NFκB reporter assay, co-culture with Raji cells against no Raji cells [6]: > 2 fold | binding result [2]: binds
B5: OX40SF2IgG1E345R (antibody)
heavy: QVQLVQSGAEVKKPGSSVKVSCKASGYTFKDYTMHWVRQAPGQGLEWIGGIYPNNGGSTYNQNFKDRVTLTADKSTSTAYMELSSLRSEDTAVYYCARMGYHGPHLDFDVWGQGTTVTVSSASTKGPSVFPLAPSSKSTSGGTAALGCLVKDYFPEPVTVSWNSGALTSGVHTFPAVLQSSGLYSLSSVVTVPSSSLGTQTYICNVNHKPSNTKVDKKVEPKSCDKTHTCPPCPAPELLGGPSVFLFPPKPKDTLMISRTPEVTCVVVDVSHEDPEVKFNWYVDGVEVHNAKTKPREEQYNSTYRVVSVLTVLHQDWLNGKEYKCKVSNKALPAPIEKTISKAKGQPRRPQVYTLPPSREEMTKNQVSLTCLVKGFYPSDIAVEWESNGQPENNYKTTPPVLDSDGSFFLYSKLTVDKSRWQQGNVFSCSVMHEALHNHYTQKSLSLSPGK
VL: B2 VL
notes: as for B2

HEK-Blue NFκB reporter assay, co-culture with Raji cells; efficacy at 1000 ng/ml against OX40 ligand at the same concentration [6]: > 2 fold | EC50 [1]: 0.459 µg/mL | EC50 [7]: 0.216 µg/mL | fold better potency (against OX40SF2IgG1, reference implied) [7]: 20 fold
B6: OX40SF2IgG1S267E/L328F (antibody, name in EU numbering)
heavy: not shown
VL: B2 VL
notes: Full IgG1; Positions are EU Index, not positions on the UniProt entry
binding result [5]: no binding (tested: 1 ng/ml to 10000 ng/ml)

binding result [2]: binds
B7: OX40SF2IgG1E430G (antibody)
heavy: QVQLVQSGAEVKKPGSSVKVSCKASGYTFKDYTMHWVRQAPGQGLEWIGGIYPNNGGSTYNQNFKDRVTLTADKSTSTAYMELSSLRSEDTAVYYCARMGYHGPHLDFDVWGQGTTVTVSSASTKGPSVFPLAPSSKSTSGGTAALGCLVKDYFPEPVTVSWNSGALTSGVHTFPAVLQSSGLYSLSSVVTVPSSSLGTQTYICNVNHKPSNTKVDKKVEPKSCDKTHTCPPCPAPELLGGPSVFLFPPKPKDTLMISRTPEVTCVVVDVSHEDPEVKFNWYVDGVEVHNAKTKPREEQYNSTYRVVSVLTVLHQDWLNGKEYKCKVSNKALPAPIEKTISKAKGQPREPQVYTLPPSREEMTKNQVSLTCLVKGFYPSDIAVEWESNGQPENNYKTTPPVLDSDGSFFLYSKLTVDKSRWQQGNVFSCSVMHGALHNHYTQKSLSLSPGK
VL: B2 VL
notes: as for B2

binding result [8]: binds
B8: OX40SF2IgG1E345R/E430G/S440Y (antibody)
heavy: QVQLVQSGAEVKKPGSSVKVSCKASGYTFKDYTMHWVRQAPGQGLEWIGGIYPNNGGSTYNQNFKDRVTLTADKSTSTAYMELSSLRSEDTAVYYCARMGYHGPHLDFDVWGQGTTVTVSSASTKGPSVFPLAPSSKSTSGGTAALGCLVKDYFPEPVTVSWNSGALTSGVHTFPAVLQSSGLYSLSSVVTVPSSSLGTQTYICNVNHKPSNTKVDKKVEPKSCDKTHTCPPCPAPELLGGPSVFLFPPKPKDTLMISRTPEVTCVVVDVSHEDPEVKFNWYVDGVEVHNAKTKPREEQYNSTYRVVSVLTVLHQDWLNGKEYKCKVSNKALPAPIEKTISKAKGQPRRPQVYTLPPSREEMTKNQVSLTCLVKGFYPSDIAVEWESNGQPENNYKTTPPVLDSDGSFFLYSKLTVDKSRWQQGNVFSCSVMHGALHNHYTQKYLSLSPGK
VL: B2 VL
notes: In the NanoBRET assay the light chains carried a C-terminal Nanoluc or HaloTag; also called OX40SF2E345R/E430G/S440Y
binding result [3]: binds

Source: patent US20200231693A1 (Janssen / Centocor, published 2020)
